Patent US12458688B2, “Epitopes” (Scancell Limited, priority 2018, dated 2025)
Where no end group is shown, it is not given here. [ ]: non-standard residue; d: D form. hCit = NC(=O)NCCCC[C@H](N)C(=O)O

Molecular target: T1, HLA-DP4 (Homo sapiens, UniProt P04440+P20036)
T1 sequence (P20036 29-260): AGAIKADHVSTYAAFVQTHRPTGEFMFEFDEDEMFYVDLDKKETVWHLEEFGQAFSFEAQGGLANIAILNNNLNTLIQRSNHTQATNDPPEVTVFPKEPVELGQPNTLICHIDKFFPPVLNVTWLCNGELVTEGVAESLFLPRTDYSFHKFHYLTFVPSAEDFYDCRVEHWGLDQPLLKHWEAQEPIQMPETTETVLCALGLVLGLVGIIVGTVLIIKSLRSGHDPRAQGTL
T1 sequence (P04440 30-258): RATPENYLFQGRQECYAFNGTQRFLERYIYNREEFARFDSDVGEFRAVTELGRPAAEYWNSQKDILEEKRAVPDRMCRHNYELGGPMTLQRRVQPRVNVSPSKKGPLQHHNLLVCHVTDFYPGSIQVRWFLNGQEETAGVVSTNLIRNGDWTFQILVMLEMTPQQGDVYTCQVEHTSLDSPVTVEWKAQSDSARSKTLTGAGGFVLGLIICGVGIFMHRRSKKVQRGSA
Test: DP4 competition assay with biotinylated Hep B peptide
Conditions: inhibition of biotinylated Hep B binding to HLA-DP4, 5 fold excess test peptide, equal amount for unlabelled Hep B
Method: 2×T175 gave 2.5×10^7 B16 HHDII/DP4 (B16F1 β2M H2Ab1 dKO A35 HHDII/DP4 H7/2E9/F9 p14) cells. This was enough for 5 preps using the following protocol with Mem-PER™ Plus Membrane Protein Extraction Kit (thermo-scientific cat #89842).
5×10^6 cells were resuspended in the growth media by scraping the cells off the surface of the plate with a cell scraper and then centrifuged at 300 g for 5 mins. The cell pellet was washed with 3 ml of Cell Wash Solution and centrifuged at 300 g for 5 mins. The supernatant was removed and discarded. The cells were resuspended in 1.5 ml of Cell Wash Solution and transfer to a 2 ml centrifuge tube and centrifuged at 300 g for 5 mins. The supernatant was discarded. 0.75 ml of permeabilization buffer was added to the cell pellet and vortexed briefly to obtain a homogeneous cell suspension and incubated for 10 mins at 4° C. with constant mixing. The permeabilized cells were centrifuge for 15 mins at 16,000g before carefully removing the supernatant containing cytosolic proteins and transfering to a new tube. 0.5 ml of solubilization buffer was added to the pellet and resuspend prior to incubating at 4° C. for 30 minutes with constant mixing prior to centrifugation at 16,000g for 15 mins at 4° C. The supernatant containing solubilized membrane and membrane-associated proteins was transfered to a new tube. Aliquots were frozen at −80° C. for future use. 12.5 μl Halt™ Protease and Phosphatase Inhibitor Cocktail, EDTA-free (100X) thermo-scientific (Catalog number 78445) was added prior to freezing.
High binding plates were coated with streptavidin (Sigma S4762 at 1 mg/ml) 1/500 in PBS and incubated overnight at 4° C. The plates were blocked with 1% BSA in PBS for 4 hrs at room temp and washed 3×PBS/0.5% Tweenx. 450 μl of cell prep lysate (B16F1 B16 HHDII/DP4 H7/2E9/F9) was mixed with 50 μg test peptide (see below) or 10 μg of unlabelled Hep B peptide for 30 mins. 10 μg biotinylated Hep B peptide was added & incubated for 4 hrs at 37° C.:
Lysate/peptide mix was added to the plates at 100 μl/well and incubated for 4 hrs at room temperature. Plates were washed 3× with PBS/0.5% Tween. 100 μl per well of Leinco anti-Human HLA-DP4 clone B7/21 #H260 1 mg/ml at 1/500 dilution in 1% BSA/PBS was added and incubated for 1 hr at room temperature prior to washing 3× PBS/0.5% Tween. Goat anti-mouse lgG3-HRP at 0.5 mg/ml 1/500 100 μl per well (Invitrogen #M32607) diluted in 1% BSA/PBS) was added for 1 hr at room temperature prior to washing and adding 150 μl of TMB substrate to each well. The reaction was stopped with 50 μl of 2N H2SO4 and plates read plate at 450 nm.
To ensure that the biotinylation of Hep B had not interfered with its binding, HLA-DP4 was incubated with equal amounts of biotinylated and unlabelled Hep B peptide. Unlabelled peptide competed equally reducing binding by 47% (FIG. 53b).
The biotinylated HepB peptide was then incubated with a 5 fold excess of the unlabelled homocitrulline peptides. All peptides inhibited the binding of biotinylated Hep B to HLA-DP4 but to varying levels (FIG. 53c-e).

| % inhibition (listed as Cyk8 281-399 Hcit) [%] | Substance | % inhibition [%] |
| --- | --- | --- |
|  | EIN-hcit-RTEMENEFVLI-hcit-hcit-DVDE (EIN[hCit]RTEMENEFVLI[hCit][hCit]DVDE) [Cyk8 182-202 Hcit] | 61 |
|  | HACTQ-hcit-FSH(N)EEIAMATVTA (HACTQ[hCit]FSHNEEIAMATVTA; not fully specified; printed as HACTQ-hcit-FSH(N)EEIAMATVTA) [Aldolase A 238-256 Hcit] | 73 |
|  | IGGVILFHETLYQ-hcit-ADDGRP (IGGVILFHETLYQ[hCit]ADDGRP) [Aldolase A 74-93 Hcit] | 69 |
|  | KFASFID-Hcit-VRFLEQQN-Hcit-MLE (KFASFID[hCit]VRFLEQQN[hCit]MLE) [Cyk8 101-120 Hcit] | 71 |
|  | LEQQN-hcit-MLET-hcit-WSLLQQQ-hcit-T (LEQQN[hCit]MLET[hCit]WSLLQQQ[hCit]T) [Cyk8 112-131 Hcit] | 64 |
|  | LREYQELMNV-hcit-LALDIEI (LREYQELMNV[hCit]LALDIEI) [Cyk8 371-388 Hcit] | 72 |
|  | NYID-Hcit-VRFLEQQN-Hcit-ILLAEL (NYID[hCit]VRFLEQQN[hCit]ILLAEL) [Vimentin 116-135 Hcit] | 44 |
|  | hcit-DGADFA-hcit-WRCVL-hcit-IGEH ([hCit]DGADFA[hCit]WRCVL[hCit]IGEH) [Aldolase A 140-157 Hcit] | 76 |
| 60 | hcit-LALDIEIATYR-hcit-LLEGEE ([hCit]LALDIEIATYR[hCit]LLEGEE) [Cyk8 381-399 Hcit] |  |
